In publication PMC8299537 (Nature, 2021):
One block for each binder: values may come before it.

Target: T1, PYD and CARD-deleted NLRP1 (NLRP1ΔΔ), molecule A of the ternary complex (human, UniProt Q9C000-1 148-1364)
T1 sequence (looked up): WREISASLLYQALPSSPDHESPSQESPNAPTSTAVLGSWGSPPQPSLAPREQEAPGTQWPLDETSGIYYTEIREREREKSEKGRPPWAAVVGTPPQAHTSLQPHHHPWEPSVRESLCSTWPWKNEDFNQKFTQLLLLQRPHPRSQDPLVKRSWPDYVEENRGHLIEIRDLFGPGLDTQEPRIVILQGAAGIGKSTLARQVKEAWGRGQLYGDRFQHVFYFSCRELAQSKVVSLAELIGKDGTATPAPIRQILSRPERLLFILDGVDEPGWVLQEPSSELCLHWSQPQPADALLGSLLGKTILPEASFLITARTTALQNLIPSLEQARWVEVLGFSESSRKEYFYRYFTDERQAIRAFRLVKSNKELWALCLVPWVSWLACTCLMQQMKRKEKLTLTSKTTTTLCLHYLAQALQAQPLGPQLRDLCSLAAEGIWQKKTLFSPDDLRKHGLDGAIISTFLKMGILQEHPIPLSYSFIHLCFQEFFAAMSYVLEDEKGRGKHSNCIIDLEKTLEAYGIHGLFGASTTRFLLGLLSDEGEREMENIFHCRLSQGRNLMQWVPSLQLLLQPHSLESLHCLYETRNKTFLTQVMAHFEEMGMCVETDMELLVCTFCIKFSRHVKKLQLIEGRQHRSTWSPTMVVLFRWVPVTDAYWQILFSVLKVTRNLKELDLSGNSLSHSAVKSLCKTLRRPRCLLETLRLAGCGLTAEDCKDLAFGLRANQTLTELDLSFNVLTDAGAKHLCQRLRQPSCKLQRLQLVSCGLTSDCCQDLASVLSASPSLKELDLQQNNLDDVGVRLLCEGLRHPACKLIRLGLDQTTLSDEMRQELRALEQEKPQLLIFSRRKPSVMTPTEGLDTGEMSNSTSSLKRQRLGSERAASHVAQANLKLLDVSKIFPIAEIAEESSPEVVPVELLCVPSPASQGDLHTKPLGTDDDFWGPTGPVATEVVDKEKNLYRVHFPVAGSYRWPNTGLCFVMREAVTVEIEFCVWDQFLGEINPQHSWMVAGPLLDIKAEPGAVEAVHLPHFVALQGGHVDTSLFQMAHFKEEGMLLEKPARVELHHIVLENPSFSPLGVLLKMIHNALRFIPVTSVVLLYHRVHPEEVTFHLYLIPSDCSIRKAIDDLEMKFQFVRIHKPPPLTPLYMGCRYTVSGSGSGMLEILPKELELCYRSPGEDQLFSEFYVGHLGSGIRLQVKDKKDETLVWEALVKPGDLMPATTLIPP
Experiment: cryo-EM structure

binding result: binds
B1: NLRP1-CT derived from NLRP1ΔΔ (UPA subdomain only), molecule B of the ternary complex (domain or fragment, human, UniProt Q9C000-1 1213-1364, looked up)
chain: SPLGVLLKMIHNALRFIPVTSVVLLYHRVHPEEVTFHLYLIPSDCSIRKAIDDLEMKFQFVRIHKPPPLTPLYMGCRYTVSGSGSGMLEILPKELELCYRSPGEDQLFSEFYVGHLGSGIRLQVKDKKDETLVWEALVKPGDLMPATTLIPP

binding result: binds
B2: DPP9, short isoform (His-TEV-DPP9), co-purified with NLRP1ΔΔ (enzyme, human)
chain: MATTGTPTADRGDAAATDDPAARFQVQKHSWDGLRSIIHGSRKYSGLIVNKAPHDFQFVQKTDESGPHSHRLYYLGMPYGSRENSLLYSEIPKKVRKEALLLLSWKQMLDHFQATPHHGVYSREEELLRERKRLGVFGITSYDFHSESGLFLFQASNSLFHCRDGGKNGFMVSPMKPLEIKTQCSGPRMDPKICPADPAFFSFINNSDLWVANIETGEERRLTFCHQGLSNVLDDPKSAGVATFVIQEEFDRFTGYWWCPTASWEGSEGLKTLRILYEEVDESEVEVIHVPSPALEERKTDSYRYPRTGSKNPKIALKLAEFQTDSQGKIVSTQEKELVQPFSSLFPKVEYIARAGWTRDGKYAWAMFLDRPQQWLQLVLLPPALFIPSTENEEQRLASARAVPRNVQPYVVYEEVTNVWINVHDIFYPFPQSEGEDELCFLRANECKTGFCHLYKVTAVLKSQGYDWSEPFSPGEDEFKCPIKEEIALTSGEWEVLARHGSKIWVNEETKLVYFQGTKDTPLEHHLYVVSYEAAGEIVRLTTPGFSHSCSMSQNFDMFVSHYSSVSTPPCVHVYKLSGPDDDPLHKQPRFWASMMEAASCPPDYVPPEIFHFHTRSDVRLYGMIYKPHALQPGKKHPTVLFVYGGPQVQLVNNSFKGIKYLRLNTLASLGYAVVVIDGRGSCQRGLRFEGALKNQMGQVEIEDQVEGLQFVAEKYGFIDLSRVAIHGWSYGGFLSLMGLIHKPQVFKVAIAGAPVTVWMAYDTGYTERYMDVPENNQHGYEAGSVALHVEKLPNEPNRLLILHGFLDENVHFFHTNFLVSQLIRAGKPYQLQIYPNERHSIRCPESGEHYEVTLLHFLQEYL
